Changes are numbered by the printed parent chain.
T1: mouse TROP2 (purified recombinant antigen, Acro Biosystems Cat #TR2-M52H6) (mouse, UniProt Q8BGV3 25-270)
T1 construct: Bought recombinant protein; also called msTROP2
T1 sequence: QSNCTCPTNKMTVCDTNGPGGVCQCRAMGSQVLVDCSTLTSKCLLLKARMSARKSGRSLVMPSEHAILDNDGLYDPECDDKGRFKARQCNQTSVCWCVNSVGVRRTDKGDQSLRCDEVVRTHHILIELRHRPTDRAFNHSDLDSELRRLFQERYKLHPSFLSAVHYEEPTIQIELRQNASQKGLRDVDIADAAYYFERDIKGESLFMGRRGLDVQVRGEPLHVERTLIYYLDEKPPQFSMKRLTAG

T2: human TROP2 (purified recombinant antigen, Acro Biosystems Cat #TR2-H5223) (human, UniProt P09758 27-274)
T2 construct: Bought recombinant protein; also called huTROP2
T2 sequence: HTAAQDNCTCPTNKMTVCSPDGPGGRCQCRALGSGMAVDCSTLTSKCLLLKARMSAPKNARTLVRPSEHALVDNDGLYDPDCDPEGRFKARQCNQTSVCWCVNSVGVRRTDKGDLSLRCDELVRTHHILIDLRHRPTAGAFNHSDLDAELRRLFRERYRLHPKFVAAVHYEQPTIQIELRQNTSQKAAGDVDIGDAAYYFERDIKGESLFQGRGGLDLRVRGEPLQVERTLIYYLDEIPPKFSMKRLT

T3: cynomolgus/rhesus TROP2 (purified recombinant antigen, Acro Biosystems Cat #TR2-R52H3) (cynomolgus/rhesus, UniProt P09758 27-274 (human entry))
T3 construct: Bought recombinant protein; also called cyTROP2; cyno/rhesus TROP2
T3 chain: T2 sequence with M36V, S67N, I204V

T4: human EpCAM (purified recombinant antigen, Acro Biosystems Cat #EPM-H5223) (human, UniProt P16422 24-265)
T4 construct: Bought recombinant protein
T4 sequence: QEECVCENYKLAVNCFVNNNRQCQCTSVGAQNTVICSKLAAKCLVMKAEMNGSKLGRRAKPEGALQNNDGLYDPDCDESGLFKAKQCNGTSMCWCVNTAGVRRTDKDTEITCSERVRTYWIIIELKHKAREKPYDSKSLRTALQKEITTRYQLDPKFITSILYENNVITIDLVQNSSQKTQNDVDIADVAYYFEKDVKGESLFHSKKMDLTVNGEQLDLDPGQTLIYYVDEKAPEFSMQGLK

T5: human Trop2 on cells (FaDu cells, endogenous; ExpiCHO cells overexpressing human Trop2) (human, UniProt P09758 27-323)
T5 construct: Cell-surface form
T5 sequence: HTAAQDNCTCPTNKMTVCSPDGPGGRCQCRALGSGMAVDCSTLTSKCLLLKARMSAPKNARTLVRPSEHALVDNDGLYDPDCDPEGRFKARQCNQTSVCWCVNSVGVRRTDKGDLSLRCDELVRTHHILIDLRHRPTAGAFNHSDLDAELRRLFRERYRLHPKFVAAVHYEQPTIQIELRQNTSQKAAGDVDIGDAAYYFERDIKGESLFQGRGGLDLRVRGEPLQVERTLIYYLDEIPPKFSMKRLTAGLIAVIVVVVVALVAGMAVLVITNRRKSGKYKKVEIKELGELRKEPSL

B1: SD-394517 (antibody, V domains shown)
VH: AVTLDESGGGLQTPGGALSLVCKGSGFTFSSYAMGWVRQAPGKGLEYVAAISSGSSTGYGAAVKGRATISRDTGQSTVRLQLNNLRAEDTATYYCAKSGYGGSASYVSDIDAWGHGTEVIVSS
VL: ALALTQPSSVSANPGETVEITCSGGGDYYGTYYYGWYQQKAPGSAPVTVIYDNTKRPSNIPSRFSGSTSGSTNTLTITGVQADDEAVYYCGSYDSSAGIFGAGTTLTVL
notes: Chicken/human chimera
B2: SD-970200 (antibody, V domains shown)
VH: B1 VH with R71K
VL: B1 VL
notes: Chicken/human chimera
B3: SD-685208 (antibody, V domains shown)
VH: AVTLDESGGGLQTPGGALSLVCKASGFDFIDYDMFWVRQAPGKGLEWVGVINRSGSYTNYAPAVKGRATISRDNGQSTMRLQLNNLRAEDTGTYYCARGACTHCWDADSAGYIDAWGHGTEVIVSS
VL: ALALTQPSSVSANPGETVKITCSGSSGSYGWFQQKSPGSAPVTVIYWNDKRPSDIPSRFSGSTSGSTGTLTITGVQADDEAVYFCGNADSSGTFGAGTTLTVL
notes: Chicken/human chimera
B4: SD-457798 (antibody, V domains shown)
VH: B1 VH with R71K
VL: ALALTQPSSVSANPGETVEITCSGGGDYYGTYYYGWYQQKAPGSAPVTVIYDNTKRPSNIPSRFSGSTSGSTNTLTITGVQADDEAIYFCGSYKSNTFGAGTTLTVL
notes: Chicken/human chimera
B5: 589-VH_2 + 589-VL_1 (antibody, V domains shown)
VH: QVQLLESGGGLVKPGGSLRLSCAASGFDFIDYDMFWIRQAPGKGLEWVGVINRSGSYTNYAPAVKGRATISRDNAKNSMYLQMNSLRAEDTAVYYCARGACTHCWDADSAGYIDAWGQGTLVTVSS
VL: SYELTQPPSVSVSPGQTASITCSGSSGSYGWYQQKPGQSPVLVIYSSDKRPSGIPERFSGSNSGNTATLTISGTQAMDEADYYCGGYDGSTDVGIFGGGTKLTVL
B6: 589-VH_1 + 589-VL_1 (antibody, V domains shown)
VH: B5 VH with D28T, I30S, G49S, A68F, M79L
VL: B5 VL
B7: 589-VH_1 + 589-VL_2 (antibody, V domains shown)
VH: B5 VH with D28T, I30S, G49S, A68F, M79L
VL: B5 VL with Y2L, Y32H, L42T, N62S, N65S
B8: 589-VH_2 + 589-VL_2 (antibody, V domains shown)
VH: B5 VH
VL: B5 VL with Y2L, Y32H, L42T, N62S, N65S
notes: also called SD-861408
B9: 589-VH_3 + 589-VL_1 (antibody, V domains shown)
VH: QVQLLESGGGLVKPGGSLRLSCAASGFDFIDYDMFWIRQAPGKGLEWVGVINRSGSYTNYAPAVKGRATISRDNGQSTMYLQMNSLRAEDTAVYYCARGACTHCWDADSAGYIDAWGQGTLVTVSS
VL: B5 VL
B10: 589-VH_3 + 589-VL_2 (antibody, V domains shown)
VH: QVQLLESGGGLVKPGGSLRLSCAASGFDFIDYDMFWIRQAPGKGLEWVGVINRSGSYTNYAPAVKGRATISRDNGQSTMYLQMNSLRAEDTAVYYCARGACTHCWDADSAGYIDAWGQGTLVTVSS
VL: B5 VL with Y2L, Y32H, L42T, N62S, N65S
B11: 589-VH_2 + 589-VL_4 (antibody, V domains shown)
VH: B5 VH
VL: ALALTQPSSVSANPGGTVKITCSGSSGSYGWHQQKSPGSAPVTVIYSSDKRPSDIPSRFSGALSGSTATLTITGVRAEDEAVYYCGGYDGSTDVGIFGAGTTLTVL
B12: 589-VH_1 + 589-VL_4 (antibody, V domains shown)
VH: B5 VH with D28T, I30S, G49S, A68F, M79L
VL: B11 VL
B13: 589-VH_3 + 589-VL_4 (antibody, V domains shown)
VH: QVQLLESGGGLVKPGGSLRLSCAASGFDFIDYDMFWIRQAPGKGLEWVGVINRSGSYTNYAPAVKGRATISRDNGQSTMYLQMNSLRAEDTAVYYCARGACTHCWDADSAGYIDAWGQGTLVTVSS
VL: B11 VL
B14: 589-VH_5 + 589-VL_1 (antibody, V domains shown)
VH: B3 VH with A17G
VL: B5 VL
notes: parental VH with humanized VL
B15: 589-VH_5 + 589-VL_2 (antibody, V domains shown)
VH: B3 VH with A17G
VL: B5 VL with Y2L, Y32H, L42T, N62S, N65S
notes: parental VH with humanized VL
B16: RS7 (antibody, V domains shown)
VH: QVQLQQSGSELKKPGASVKVSCKASGYTFTNYGMNWVKQAPGQGLKWMGWINTYTGEPTYTDDFKGRFAFSLDTSVSTAYLQISSLKADDTAVYFCARGGFGSSYWYFDVWGQGSLVTVSS
VL: DIQLTQSPSSLSASVGDRVSITCKASQDVSIAVAWYQQKPGKAPKLLIYSASYRYTGVPDRFSGSGSGTDFTLTISSLQPEDFAVYYCQQHYITPLTFGAGTKVEIKR

Each binder was assayed against T1, mouse TROP2 (purified recombinant …) (assay: SPR, Carterra LSA; ratio of KD values, reference huTROP2).

Binder	Fold difference in affinity (huTROP2:msTROP2) [fold]
B1	1.5
B2	3
B3	3
B4	0.5

Each binder was assayed against T2, human TROP2 (purified recombinant …) (assay: SPR (Carterra LSA), antibody captured through human Fc, huTROP2 as analyte; KD plotted for each VH/VL combination).

Binder	binding result
B5	binds
B6	binds
B7	binds
B8	binds
B9	binds
B10	binds
B11	binds
B12	binds
B13	binds
B14	binds
B15	binds

Molecular target: T3, cynomolgus/rhesus TROP2 (purified …)
Assay: SPR, Carterra LSA; antibody captured on anti-human IgG, antigen injected; 1:1 fit

Binder	Kd [pM]
B16	2050
B1	920
B2	290
B3	6080
B4	960

What follows are binders tested against T2, human TROP2 (purified recombinant …) in the same assay as above.

Binder	Kd [pM]
B16	1810
B1	760
B2	210
B3	3810
B4	640

The binders below were run against T1, mouse TROP2 (purified recombinant …) in the same assay as above.

Binder	Kd [pM]
B1	1180
B2	630
B3	11400
B4	340

These binders were tested against T4, human EpCAM (purified recombinant …) (assay: SPR, Carterra LSA; antibody captured on anti-human IgG, antigen injected).

Binder	binding result
B1	no binding (tested: 1 µM top concentration)
B2	no binding (tested: 1 µM top concentration)
B3	no binding (tested: 1 µM top concentration)
B4	no binding (tested: 1 µM top concentration)

What follows are binders tested against T5, human Trop2 on cells (FaDu cells, …) (assay: flow cytometry on FaDu cells (endogenous human Trop2); average of n=1-3 experiments).

Binder	EC50 [pM]
B16	2000
B1	2040
B2	1530
B3	513
B4	1060

These binders were tested against T5, human Trop2 on cells (FaDu cells, …) (assay: flow cytometry on ExpiCHO cells overexpressing human Trop2, percent of cells bound).

Binder	EC50 (read off the curve) [pM]
B16	~30
B2	~50

What follows are binders tested against T2, human TROP2 (purified recombinant …) (assay: MSD assay: biotinylated TROP2 on streptavidin plate, antibody titrated, anti-human SULFO-TAG detection).

Binder	EC50 (read off the curve) [pM]
B16	~300
B2	~200
B3	~80

Molecular target: T2, human TROP2 (purified recombinant …)
Assay: SPR, Carterra LSA; antibody captured on anti-human IgG, antigen injected; 1:1 fit
Remark: another data set of the same source

Binder	Kd [pM]	koff [s⁻¹]	kon [M⁻¹ s⁻¹]
B16	1810	0.000201	111000
B1	760	0.000303	396000
B2	210	0.000114	555000
B3	3810	0.000898	235000
B4	640	0.000259	403000
